Experimental data from the supplement of paper PMC9732359.
± gives the uncertainty stated by the source.

Assay: protein stability index of a GFP-peptide fusion (yeast GPS) (PSI 1-4); higher = more stable; sorted into four equal gates, so the index is relative within each strain
Summary of the method: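 Peptides tiling yeast proteins in 17-residue segments were fused downstream of GFP, with Cherry expressed from the same plasmid. As a pooled library in yeast, mid-log cultures grown in leucine-free medium were sorted into four equal gates by GFP/Cherry fluorescence ratio. Gate plasmids were PCR-amplified and Illumina-sequenced, and barcodes linked reads to strains. Each peptide received a protein stability index equal to the sum of each gate's read frequency times its gate number.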

| Sequence | protein stability index (doa10∆) | protein stability index (pdr5∆) | protein stability index (san1∆) | protein stability index (ubr1∆) |
| --- | --- | --- | --- | --- |
| FMSNDGPTLEKYISAEL [SNU114] | 2.18 ± 0.069 | 2.83 ± 0.078 | 3.03 ± 0.054 | 3.24 ± 0.082 |
| ISQPKSMSGRISAKDMG [BRR2] | 3.1 ± 0.06 | 3.16 ± 0.055 | 3.08 ± 0.058 | 3.15 ± 0.046 |
| KWGRNQPVNINLDSSIT [YMR129W/POM152] | 2.54 ± 0.094 | 2.7 ± 0.076 | 2.71 ± 0.099 | 2.52 ± 0.07 |
| LSSNITFDGKPTATPSP [YMR153W/NUP53] | 2.91 ± 0.057 | 3.03 ± 0.058 | 3 ± 0.043 | 2.91 ± 0.046 |
| EAGVTDVKVSISHDDLQ [FAS2] | 2.77 ± 0.049 | 2.72 ± 0.038 | 2.74 ± 0.061 | 2.85 ± 0.047 |
| LQDLSRYSRQFINNVLS [GRR1] | 2.78 ± 0.059 | 2.29 ± 0.049 | 2.56 ± 0.049 | 2.74 ± 0.051 |
| LFDEFGNLIGVDPFDSD [SNU114] | 3.12 ± 0.078 | 3.04 ± 0.069 | 2.87 ± 0.069 | 3.17 ± 0.058 |
| ECATCHGNLASCHGHFG [RPO31] | 2.9 ± 0.072 | 3.17 ± 0.12 | 2.92 ± 0.067 | 3.04 ± 0.056 |
| LKESIKNSTSSMTAVPK [RPN1] | 3.02 ± 0.096 | 3.31 ± 0.1 | 3.14 ± 0.1 | 3.2 ± 0.084 |
| FMVRLDSEKHIDFAPTS [RPS9A] | 2.91 ± 0.071 | 2.87 ± 0.047 | 2.72 ± 0.05 | 2.82 ± 0.047 |
| TPTHSDSHEDMKRRRLE [ROX3] | 2.89 ± 0.15 | 3.33 ± 0.15 | 3.14 ± 0.18 | 3.14 ± 0.091 |
| SVIVSQFCAFDSSSNTY [SIN4] | 2.48 ± 0.084 | 2.26 ± 0.073 | 2.51 ± 0.12 | 2.19 ± 0.074 |
| PSFVKSGKLRDYQVQGL [ISW2] | 3.33 ± 0.076 | 3.39 ± 0.071 | 3.22 ± 0.039 | 3.31 ± 0.058 |
| QPQALQKSGRPVKSIRA [RPO21] | 2.62 ± 0.065 | 2.29 ± 0.069 | 2.36 ± 0.083 | 2.17 ± 0.037 |
| GLSTDHTTQIVNLEDNT [YML103C/NUP188] | 2.89 ± 0.074 | 2.99 ± 0.078 | 2.88 ± 0.053 | 3.04 ± 0.047 |
| NPHQDLQAQDRAHRIGQ [SNF2] | 3.03 ± 0.077 | 3.04 ± 0.074 | 2.9 ± 0.07 | 3.19 ± 0.053 |
| TIDNIDSENFSFEKLYE [YMR129W/POM152] | 3.3 ± 0.085 | 3.26 ± 0.076 | 3.33 ± 0.074 | 3.17 ± 0.047 |
| RSLDENRLEIKYHNDLI [SMC1] | – | 3.2 ± 0.29 | 2.78 ± 0.26 | 3.14 ± 0.24 |
| YKKLDIDGKVIQAGKFD [SNF2] | 2.94 ± 0.088 | 3.36 ± 0.08 | 3.06 ± 0.044 | 2.99 ± 0.059 |
| ATAALEIILKLCRNPLT [YJL039C/NUP192] | 2.03 ± 0.065 | 1.95 ± 0.063 | 1.25 ± 0.098 | 2.38 ± 0.059 |
| DDESPRFVMPNQLLAAL [RRP6] | 1.98 ± 0.048 | 2.02 ± 0.052 | 1.88 ± 0.069 | 2.18 ± 0.042 |
| VRRRFARGMTSKPAGFM [RPS15] | 2.9 ± 0.071 | 2.89 ± 0.077 | 2.94 ± 0.1 | 3.07 ± 0.075 |
| AALYKEVYNVIASDGSY [RPO21] | 2.34 ± 0.089 | 1.77 ± 0.1 | 2.22 ± 0.15 | 3.06 ± 0.12 |
| FILIPLYKIFSYALSME [SNU114] | 1.65 ± 0.042 | 1.45 ± 0.037 | 1.46 ± 0.075 | 1.68 ± 0.031 |
| ESSDFGAIILTKMDGHA [SRP54] | 2.42 ± 0.1 | 2.74 ± 0.094 | 2.91 ± 0.11 | 2.8 ± 0.077 |
| SLFGSIGDDGYDLLIST [SRB5] | 2.17 ± 0.087 | 2.07 ± 0.14 | 3.05 ± 0.071 | 3.5 ± 0.11 |
| NGFSFTKFNHNKEKSNS [YOR098C/NUP1] | 2.69 ± 0.082 | 2.98 ± 0.075 | 2.77 ± 0.039 | 2.57 ± 0.052 |
